From publication PMC4294677 (Molecular Biology of the Cell, 2015) come the findings set out here.

Assay [1] addresses HOPS (homotypic fusion and vacuole protein sorting complex) (S. cerevisiae, UniProt P12868;Q03308;P27801;P20795;Q07468;P38959). Briefly: liposome floatation.
In assay [2] the target is phospho-HOPS (HOPS phosphorylated by the vacuolar kinase Yck3p) (S. cerevisiae, UniProt P12868;Q03308;P27801;P20795;Q07468;P38959). The assay is described as follows: liposome floatation.

B1: Ypt7p:GTP (vacuolar Rab-family GTPase Ypt7p in its GTP-bound state) (natural protein)
chain: MSSRKKNILKVIILGDSGVGKTSLMHRYVNDKYSQQYKATIGADFLTKEVTVDGDKVATMQVWDTAGQERFQSLGVAFYRGADCCVLVYDVTNASSFENIKSWRDEFLVHANVNSPETFPFVILGNKIDAEESKKIVSEKSAQELAKSLGDIPLFLTSAKNAINVDTAFEEIARSALQQNQADTEAFEDDYNDAINIRLDGENNSCSC
Take B1: the binding result in assay [1] and in assay [2] was “binds” throughout.
